From paper PMC11272584 (Nature Metabolism, 2024)
Residue numbers refer to the chain shown, from its start.

What was measured:
[1] = target: T1, GIPR G449A (human) (UniProt P48546)
T1 sequence: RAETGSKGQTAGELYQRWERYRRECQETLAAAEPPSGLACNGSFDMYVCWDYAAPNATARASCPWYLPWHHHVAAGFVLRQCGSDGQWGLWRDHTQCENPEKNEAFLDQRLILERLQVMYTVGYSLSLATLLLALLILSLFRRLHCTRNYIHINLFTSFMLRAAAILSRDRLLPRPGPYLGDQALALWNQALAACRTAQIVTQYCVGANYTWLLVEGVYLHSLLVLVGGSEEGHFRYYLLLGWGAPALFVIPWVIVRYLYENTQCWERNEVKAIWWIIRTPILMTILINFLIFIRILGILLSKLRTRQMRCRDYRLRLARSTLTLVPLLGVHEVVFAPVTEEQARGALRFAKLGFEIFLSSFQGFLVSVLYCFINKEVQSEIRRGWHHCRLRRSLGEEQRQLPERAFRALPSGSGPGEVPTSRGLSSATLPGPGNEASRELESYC

[2] = target: T2, GIPR E291K (human) (UniProt P48546)
T2 sequence: T1 sequence with E270K, A428G

[3] = target: T3, GIPR H166Y (human) (UniProt P48546)
T3 sequence: T1 sequence with H145Y, A428G

[4] = target: T4, GIPR I299V (human) (UniProt P48546)
T4 sequence: T1 sequence with I278V, A428G

[5] = target: T5, GIPR A294V (human) (UniProt P48546)
T5 sequence: T1 sequence with A273V, A428G

[6] = target: T6, GIPR T25R (human) (UniProt P48546)
T6 sequence: T1 sequence with T4R, A428G

Q: “β-arrestin 2 (Rluc8-Arrestin-3-Sp1) (from UniProt P32121 1-409) (natural protein)” was tested. Which β-arrestin 2 recruitment (BRET) on stimulation with GIP(1-42): logEC50 (Arrestin) (log M (inferred)) [1] did it give?
A: Its β-arrestin 2 recruitment (BRET) on stimulation with GIP(1-42): logEC50 (Arrestin) (log M (inferred)) is -9.24.

Q: What about the β-arrestin 2 recruitment (BRET) on stimulation with GIP(1-42): logEC50 (Arrestin) (log M (inferred)) [2] of the same substance?
A: Its β-arrestin 2 recruitment (BRET) on stimulation with GIP(1-42): logEC50 (Arrestin) (log M (inferred)) is -8.48.

Q: What about the β-arrestin 2 recruitment (BRET) on stimulation with GIP(1-42): logEC50 (Arrestin) (log M (inferred)) [3] of the same substance?
A: The β-arrestin 2 recruitment (BRET) on stimulation with GIP(1-42): logEC50 (Arrestin) (log M (inferred)) was -9.22.

Q: What about the β-arrestin 2 recruitment (BRET) on stimulation with GIP(1-42): logEC50 (Arrestin) (log M (inferred)) [4] of the same substance?
A: The β-arrestin 2 recruitment (BRET) on stimulation with GIP(1-42): logEC50 (Arrestin) (log M (inferred)) was -9.01.

Q: And the β-arrestin 2 recruitment (BRET) on stimulation with GIP(1-42): logEC50 (Arrestin) (log M (inferred)) [5]?
A: Its β-arrestin 2 recruitment (BRET) on stimulation with GIP(1-42): logEC50 (Arrestin) (log M (inferred)) is -9.01.

Q: And the β-arrestin 2 recruitment (BRET) on stimulation with GIP(1-42): logEC50 (Arrestin) (log M (inferred)) [6]?
A: The β-arrestin 2 recruitment (BRET) on stimulation with GIP(1-42): logEC50 (Arrestin) (log M (inferred)) was -9.3.
